Format: biochemical
Conditions: acetoacetyl-CoA and NADPH both at 100 μM

B1: MabA-wt: wild-type protein MabA of Mycobacterium tuberculosis, SEQ ID NO: 1 (protein, listed as Mycobacterium tuberculosis)
chain: MTATATEGAKPPFVSRSVLVTGGNRGIGLAIAQRLAADGHKVAVTHRGSGAPKGLFGVECDVTDSDAVDRAFTAVEEHQGPVEVLVSNAGLSADAFLMRMTEEKFEKVINANLTGAFRVAQRASRSMQRNKFGRMIFIGSVSGSWGIGNQANYAASKAGVIGMARSIARELSKANVTANVVAPGYIDTDMTRALDERIQQGALQFIPAKRVGTPAEVAGVVSFLASEDASYISGAVIPVDGGMGMGH
- Vi: 0.60 ± 0.01 µmol/min/mg

Source: patent publication US20100113291A1 (CENTRE NATIONAL DE LA RECHERCHE SCIENTIFIQUE, priority 2006, published 2010)
